Reference: publication PMC9852587

Target: His-SYMREM1 (Medicago truncatula)
Assay: SEC; analytical gel filtration of fresh recombinant His-SYMREM1, calibrated with standard proteins; apparent molecular weight compared with the calculated size of a dimer

stoichiometry N: 2
Substance: His-SYMREM1 (natural protein)
